{"source": "paper PMC4136701", "about": "“A Conserved Cysteine Residue of Bacillus subtilis SpoIIIJ Is Important for Endospore Development” (PLoS ONE, 2014)", "molecules": {"B1": {"name": "SpoIIIJ-His6 (natural protein, Bacillus subtilis, UniProt Q01625 23-261, looked up)", "chain": "CSSVKEPITADSPHFWDKYVVYPLSELITYVAKLTGDNYGLSIILVTILIRLLILPLMIKQLRSSKAMQALQPEMQKLKEKYSSKDQKTQQKLQQETMALFQKHGVNPLAGCFPILIQMPILIGFYHAIMRTQAISEHSFLWFDLGEKDPYYILPIVAGVATFVQQKLMMAGNAQQNPQMAMMLWIMPIMIIVFAINFPAALSLYWVVGNLFMIAQTFLIKGPDIKKNPEPQKAGGKKK", "modifications": "Cys23 of the lipoprotein-type signal peptide is modified during insertion of the protein into the membrane", "notes": "SpoIIIJ, membrane protein insertase of the YidC/Oxa1/Alb3 family, Bacillus subtilis; calculated mass 27 kDa; Purified protein is a mixture of monomers and dimers; it also holds proteolytic products starting at L122; also called full-length mature SpoIIIJ-His6; SpoIIIJ^wt-His6; source: E. coli C43(DE3) bearing pMS266, membrane fraction solubilised with 2% DDM, purified (Ni2+-NTA); not shown: His6, …"}}, "key": {"[1]": {"target": "SpoIIIJ^C134A-His6 (Bacillus subtilis) (UniProt Q01625)", "test": "SEC; Superose 12 HR 10/30; 20 mM Tris-HCl pH 7.6, 10% glycerol, 0.5 M NaCl, 0.1% DDM, 100 mM imidazole; fractions immunoblotted; peak areas estimated with ImageJ"}, "SpoIIIJ-His6": {"target": "B1", "test": "SDS-PAGE with or without reducing agent; purified protein in loading buffer with (100 mM) or without DTT; Coomassie staining or immunoblot with anti-His6; bands a and b cut out and run again", "details": "both partners purified"}, "[2]": {"target": "the molecule itself", "test": "SEC; Superose 12 HR 10/30; 20 mM Tris-HCl pH 7.6, 10% glycerol, 0.5 M NaCl, 0.1% DDM, 100 mM imidazole; fractions immunoblotted; peak areas estimated with ImageJ"}, "[3]": {"target": "the molecule itself", "test": "SDS-PAGE with or without reducing agent; purified protein in loading buffer with (100 mM) or without DTT; Coomassie staining or immunoblot with anti-His6; bands a and b cut out and run again"}}}
{"molecule": "SpoIIIJ^C134A-His6 (from UniProt Q01625 23-261) (natural protein)", "values": [{"measurement": "ratio of peak areas B (monomer size) to A (dimer size) (peak B : peak A)", "setting": "[1]", "value": 0.4}]}
{"molecule": "truncated SpoIIIJ-His6 starting at L122 (fragment \"c\", lacking TM1) (domain or fragment, Bacillus subtilis, UniProt Q01625 122-261, looked up, SpoIIIJ, Bacillus subtilis; about 16 kDa product of cleavage at L122 in the cytoplasmic loop between TM1 and TM2: the rest of that loop to the end of the protein (includes TM2 with Cys134); Two species of about 15 kDa both start at L122; The cause of their different mobility is not known; also called band c; truncated SpoIIIJ monomer (lacking TM1); source: E. coli C43(DE3), proteolytic product …) LFQKHGVNPLAGCFPILIQMPILIGFYHAIMRTQAISEHSFLWFDLGEKDPYYILPIVAGVATFVQQKLMMAGNAQQNPQMAMMLWIMPIMIIVFAINFPAALSLYWVVGNLFMIAQTFLIKGPDIKKNPEPQKAGGKKK", "values": [{"measurement": "binding result", "setting": "SpoIIIJ-His6", "value": "binds"}]}
{"molecule": "B1", "values": [{"measurement": "ratio of peak areas B (monomer size) to A (dimer size)", "setting": "[2]", "value": "0.111 peak B : peak A"}, {"measurement": "stoichiometry N", "setting": "[2]", "value": "~2"}, {"measurement": "stoichiometry N", "setting": "[3]", "value": 2}]}
